The target of this test is Mouse FGFR4/β-klotho complex co-expressed in rat L6 myoblast cells (mouse) (UniProt Q03142). Briefly: cell-based or functional assay.
Sequence of Mouse FGFR4/β-klotho complex co-expressed in rat L6 myoblast cells (mouse) (Q03142 17-799, chain 1 of 2): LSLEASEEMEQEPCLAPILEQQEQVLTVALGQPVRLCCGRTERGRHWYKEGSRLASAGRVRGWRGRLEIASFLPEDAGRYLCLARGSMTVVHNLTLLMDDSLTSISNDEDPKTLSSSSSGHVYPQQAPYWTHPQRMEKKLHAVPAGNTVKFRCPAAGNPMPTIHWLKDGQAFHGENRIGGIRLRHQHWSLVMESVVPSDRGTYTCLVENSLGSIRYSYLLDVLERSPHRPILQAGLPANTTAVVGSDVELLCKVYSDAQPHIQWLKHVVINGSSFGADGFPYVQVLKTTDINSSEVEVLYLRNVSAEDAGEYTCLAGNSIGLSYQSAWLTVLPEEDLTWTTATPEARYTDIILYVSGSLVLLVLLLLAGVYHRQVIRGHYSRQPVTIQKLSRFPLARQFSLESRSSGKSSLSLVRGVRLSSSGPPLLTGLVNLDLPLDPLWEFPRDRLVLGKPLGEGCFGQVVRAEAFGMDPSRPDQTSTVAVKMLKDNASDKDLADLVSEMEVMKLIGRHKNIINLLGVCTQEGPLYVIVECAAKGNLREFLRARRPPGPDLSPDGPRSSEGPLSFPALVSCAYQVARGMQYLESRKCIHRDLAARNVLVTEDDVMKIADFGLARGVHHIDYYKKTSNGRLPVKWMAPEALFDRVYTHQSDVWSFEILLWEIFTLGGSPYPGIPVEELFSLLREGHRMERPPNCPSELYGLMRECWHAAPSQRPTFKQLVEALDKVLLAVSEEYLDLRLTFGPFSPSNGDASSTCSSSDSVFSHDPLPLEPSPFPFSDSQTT
Sequence of Mouse FGFR4/β-klotho complex co-expressed in rat L6 myoblast cells (mouse) (Q99N32 whole entry, chain 2 of 2, further chain): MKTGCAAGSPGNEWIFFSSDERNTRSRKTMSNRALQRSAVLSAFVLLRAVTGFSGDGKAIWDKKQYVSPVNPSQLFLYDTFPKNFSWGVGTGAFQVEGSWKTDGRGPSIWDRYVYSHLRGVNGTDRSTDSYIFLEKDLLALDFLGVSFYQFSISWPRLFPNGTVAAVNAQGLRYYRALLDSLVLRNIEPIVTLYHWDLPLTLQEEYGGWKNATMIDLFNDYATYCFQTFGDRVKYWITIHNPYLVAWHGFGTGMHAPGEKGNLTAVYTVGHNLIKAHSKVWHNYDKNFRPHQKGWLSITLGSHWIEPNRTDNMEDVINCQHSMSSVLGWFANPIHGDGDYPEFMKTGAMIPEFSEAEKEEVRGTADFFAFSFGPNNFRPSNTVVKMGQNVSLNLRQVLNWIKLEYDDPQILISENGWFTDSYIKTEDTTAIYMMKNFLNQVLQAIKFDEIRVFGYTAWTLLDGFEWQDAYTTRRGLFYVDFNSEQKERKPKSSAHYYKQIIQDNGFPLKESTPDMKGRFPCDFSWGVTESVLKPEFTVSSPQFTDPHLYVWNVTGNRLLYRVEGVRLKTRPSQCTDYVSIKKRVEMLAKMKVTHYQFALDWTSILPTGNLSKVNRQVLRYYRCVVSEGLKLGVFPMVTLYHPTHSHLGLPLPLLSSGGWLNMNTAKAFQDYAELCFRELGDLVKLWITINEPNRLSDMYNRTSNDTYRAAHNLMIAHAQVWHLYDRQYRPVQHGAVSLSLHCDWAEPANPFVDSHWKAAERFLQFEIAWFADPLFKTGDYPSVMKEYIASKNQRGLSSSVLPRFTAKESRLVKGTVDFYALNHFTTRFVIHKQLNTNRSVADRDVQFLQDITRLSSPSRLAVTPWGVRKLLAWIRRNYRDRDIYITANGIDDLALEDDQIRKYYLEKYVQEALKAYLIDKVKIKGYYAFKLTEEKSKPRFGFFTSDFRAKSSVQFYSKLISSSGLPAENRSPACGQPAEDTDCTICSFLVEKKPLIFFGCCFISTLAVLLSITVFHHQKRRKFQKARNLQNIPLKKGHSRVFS

Sequence of FGF19 (fibroblast growth factor 19, reference or wild type sequence) (O95750 23-216 limits assumed): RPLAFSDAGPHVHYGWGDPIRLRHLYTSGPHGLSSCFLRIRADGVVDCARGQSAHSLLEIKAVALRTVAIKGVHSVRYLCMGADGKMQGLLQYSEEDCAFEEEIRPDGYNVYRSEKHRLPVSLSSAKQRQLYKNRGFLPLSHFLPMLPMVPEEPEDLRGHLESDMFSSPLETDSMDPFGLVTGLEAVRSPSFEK

With “FGF19 (fibroblast growth factor 19, reference or wild type sequence) (from UniProt O95750 23-216) (ligand)”, the EC50 (pM), ELK luciferase reporter assay in L6 cells worked out at 52.5 pM and the Emax (fold potentiation), ELK luciferase reporter assay in L6 cells (fold potentiation) stood at 1.82.

Values taken from patent US20150291677A1.
